For 1 substance, EC50 (nM) of internalization of the pHAb conjugate, Jurkat cells (CD19-, CD3+) and internalization of the pHAb conjugate by Jurkat cells results are on record in patent US20180193477A1.

The assay deals with CD3 on human CD3+ Jurkat T cells (human) (UniProt P07766). Nature of the assay: cell-based or functional assay.
Chain of CD3 on human CD3+ Jurkat T cells (human) (P07766 23-207): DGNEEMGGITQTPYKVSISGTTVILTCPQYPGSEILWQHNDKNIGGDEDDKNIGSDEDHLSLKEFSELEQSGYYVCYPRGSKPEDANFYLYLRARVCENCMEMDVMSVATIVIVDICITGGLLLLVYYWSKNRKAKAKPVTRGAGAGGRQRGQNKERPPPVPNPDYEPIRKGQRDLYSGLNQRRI

The substance “v2171, bivalent anti-CD3 pHAb conjugated mAb (UCHT1) (antibody)” came in with an EC50 (nM) of internalization of the pHAb conjugate, Jurkat cells (CD19-, CD3+) of 13.2 nM and an internalization of the pHAb conjugate by Jurkat cells of 2 nM.
